From PMC10777020, “The N1 domain of the peroxisomal AAA-ATPase Pex6 is required for Pex15 binding and proper assembly with Pex1” (The Journal of Biological Chemistry, 2023)

T1: Pex1/Pex6 (Pex1-FLAG/His-Pex6) (Saccharomyces cerevisiae, UniProt P24004+P33760)
T1 construct: heterohexamer of alternating Pex1 and Pex6
T1 sequence (P24004 1-1043): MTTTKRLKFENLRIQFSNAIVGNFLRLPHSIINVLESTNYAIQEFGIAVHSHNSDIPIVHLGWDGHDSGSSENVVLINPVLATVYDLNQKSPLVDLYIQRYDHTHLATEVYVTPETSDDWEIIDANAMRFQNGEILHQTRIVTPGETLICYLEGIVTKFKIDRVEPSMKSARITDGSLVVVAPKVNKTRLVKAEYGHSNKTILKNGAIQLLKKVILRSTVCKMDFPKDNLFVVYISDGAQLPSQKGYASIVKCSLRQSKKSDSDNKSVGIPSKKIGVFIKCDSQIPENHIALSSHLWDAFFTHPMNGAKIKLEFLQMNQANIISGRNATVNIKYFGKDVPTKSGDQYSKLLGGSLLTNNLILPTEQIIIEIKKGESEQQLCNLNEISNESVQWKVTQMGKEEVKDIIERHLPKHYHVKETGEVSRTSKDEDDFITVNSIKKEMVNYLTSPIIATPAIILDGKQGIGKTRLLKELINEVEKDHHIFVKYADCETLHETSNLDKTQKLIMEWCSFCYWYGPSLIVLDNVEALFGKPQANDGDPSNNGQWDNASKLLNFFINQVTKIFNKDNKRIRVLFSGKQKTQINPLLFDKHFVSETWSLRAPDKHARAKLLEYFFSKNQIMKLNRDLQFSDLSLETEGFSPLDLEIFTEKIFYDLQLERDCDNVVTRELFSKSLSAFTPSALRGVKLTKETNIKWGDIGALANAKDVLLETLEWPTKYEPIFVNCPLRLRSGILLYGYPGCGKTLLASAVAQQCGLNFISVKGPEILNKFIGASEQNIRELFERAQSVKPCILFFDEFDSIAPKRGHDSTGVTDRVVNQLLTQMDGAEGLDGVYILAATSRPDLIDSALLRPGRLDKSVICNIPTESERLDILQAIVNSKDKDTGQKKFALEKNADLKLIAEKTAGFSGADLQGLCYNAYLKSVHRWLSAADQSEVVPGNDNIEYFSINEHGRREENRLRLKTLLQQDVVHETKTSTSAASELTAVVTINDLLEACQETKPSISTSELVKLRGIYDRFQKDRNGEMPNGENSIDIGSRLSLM
T1 sequence (P33760 1-1030): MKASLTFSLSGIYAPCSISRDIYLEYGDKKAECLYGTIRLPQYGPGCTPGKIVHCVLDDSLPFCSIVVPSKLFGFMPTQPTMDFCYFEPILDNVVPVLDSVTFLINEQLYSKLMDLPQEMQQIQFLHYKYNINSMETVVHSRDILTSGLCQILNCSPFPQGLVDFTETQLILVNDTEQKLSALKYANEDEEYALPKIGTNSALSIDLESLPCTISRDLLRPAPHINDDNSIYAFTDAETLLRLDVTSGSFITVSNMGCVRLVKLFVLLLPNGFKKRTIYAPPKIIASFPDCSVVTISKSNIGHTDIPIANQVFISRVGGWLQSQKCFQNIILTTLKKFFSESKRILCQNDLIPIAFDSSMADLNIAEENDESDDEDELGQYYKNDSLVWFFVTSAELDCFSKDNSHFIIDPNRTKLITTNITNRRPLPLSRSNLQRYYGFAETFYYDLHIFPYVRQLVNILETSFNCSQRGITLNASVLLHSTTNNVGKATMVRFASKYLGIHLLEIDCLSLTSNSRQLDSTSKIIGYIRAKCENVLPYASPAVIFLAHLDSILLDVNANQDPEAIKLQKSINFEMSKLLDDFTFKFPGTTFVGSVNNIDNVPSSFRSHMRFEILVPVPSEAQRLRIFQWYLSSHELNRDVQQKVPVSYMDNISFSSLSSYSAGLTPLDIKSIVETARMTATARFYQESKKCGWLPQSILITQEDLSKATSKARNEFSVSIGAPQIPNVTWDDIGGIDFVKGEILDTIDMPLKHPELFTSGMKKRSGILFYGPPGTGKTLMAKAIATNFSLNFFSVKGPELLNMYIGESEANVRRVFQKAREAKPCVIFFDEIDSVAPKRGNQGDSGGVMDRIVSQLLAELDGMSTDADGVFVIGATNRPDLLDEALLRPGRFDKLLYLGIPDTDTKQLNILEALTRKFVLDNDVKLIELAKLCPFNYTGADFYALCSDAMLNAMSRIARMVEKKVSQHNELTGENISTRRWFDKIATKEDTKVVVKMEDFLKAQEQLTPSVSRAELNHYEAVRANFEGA

T2: Pex1/ΔN1-Pex6 (Saccharomyces cerevisiae, UniProt P24004+P33760)
T2 construct: Pex1 with C-terminal FLAG; Pex6 lacking first 184 residues (N1 domain) with N-terminal His tag; heterohexamer
T2 sequence (P24004 1-1043): T1 sequence (P24004 1-1043)
T2 sequence (P33760 185-1030): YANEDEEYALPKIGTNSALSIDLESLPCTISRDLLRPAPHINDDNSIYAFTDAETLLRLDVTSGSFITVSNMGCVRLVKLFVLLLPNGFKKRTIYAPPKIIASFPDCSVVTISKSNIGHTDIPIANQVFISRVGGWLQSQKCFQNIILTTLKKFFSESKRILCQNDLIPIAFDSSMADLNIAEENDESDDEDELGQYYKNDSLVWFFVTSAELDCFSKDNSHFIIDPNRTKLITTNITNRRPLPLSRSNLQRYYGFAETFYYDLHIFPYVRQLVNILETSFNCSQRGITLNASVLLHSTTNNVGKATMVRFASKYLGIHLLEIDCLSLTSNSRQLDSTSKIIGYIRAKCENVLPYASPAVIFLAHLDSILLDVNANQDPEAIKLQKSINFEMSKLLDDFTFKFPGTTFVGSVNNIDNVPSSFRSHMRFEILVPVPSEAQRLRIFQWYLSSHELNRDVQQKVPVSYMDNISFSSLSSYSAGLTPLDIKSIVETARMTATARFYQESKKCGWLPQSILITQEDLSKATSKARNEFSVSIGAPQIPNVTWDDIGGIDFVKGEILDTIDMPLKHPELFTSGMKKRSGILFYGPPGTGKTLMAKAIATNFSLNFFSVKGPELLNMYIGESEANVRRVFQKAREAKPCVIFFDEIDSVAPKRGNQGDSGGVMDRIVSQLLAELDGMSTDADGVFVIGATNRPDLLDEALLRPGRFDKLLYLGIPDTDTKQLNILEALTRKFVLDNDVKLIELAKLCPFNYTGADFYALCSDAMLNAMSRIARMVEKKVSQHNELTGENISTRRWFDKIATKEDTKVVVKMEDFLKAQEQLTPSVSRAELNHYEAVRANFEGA

T3: His-Pex6 (S. cerevisiae, UniProt P33760 1-1030)
T3 construct: Pex6, AAA-ATPase of S. cerevisiae; no limits stated for the construct; In all experiments it stood in a complex with Pex1-FLAG or a Pex1 variant; also called ScPex6; His-tagged Pex6; source: E. coli BL21*(DE3), co-expressed with Pex1-FLAG or its variants; in lysate, then purified (Ni-NTA, anti-FLAG, Superose6 Increase); not shown: His, N-terminal, kept
T3 sequence: T1 sequence (P33760 1-1030)

B1: Pex15 1-309 (cytosolic domain of Pex15) (domain or fragment, S. cerevisiae, UniProt Q08215 1-309, looked up)
chain: MAASEIMNNLPMHSLDSSLRDLLNDDLFIESDESTKSVNDQRSEVFQECVNLFIKRDIKDCLEKMSEVGFIDITVFKSNPMILDLFVSACDIMPSFTKLGLTLQSEILNIFTLDTPQCIETRKIILGDLSKLLVINKFFRCCIKVIQFNLTDHTEQEEKTLELESIMSDFIFVYITKMRTTIDVVGLQELIEIFIFQVKVKLHHKKPSPNMYWALCKTLPKLSPTLKGLYLSKDVSIEDAILNSIDNKIQKDKAKSKGKQRGVKQKIHHFHEPMLHNSSEEQVKVEDAFNQRTSTDSRLQSTGTAPRKK
notes: also called Pex15's cytosolic domain
B2: Pex15 1-266 (domain or fragment, S. cerevisiae, UniProt Q08215 1-266, looked up)
chain: MAASEIMNNLPMHSLDSSLRDLLNDDLFIESDESTKSVNDQRSEVFQECVNLFIKRDIKDCLEKMSEVGFIDITVFKSNPMILDLFVSACDIMPSFTKLGLTLQSEILNIFTLDTPQCIETRKIILGDLSKLLVINKFFRCCIKVIQFNLTDHTEQEEKTLELESIMSDFIFVYITKMRTTIDVVGLQELIEIFIFQVKVKLHHKKPSPNMYWALCKTLPKLSPTLKGLYLSKDVSIEDAILNSIDNKIQKDKAKSKGKQRGVKQK

Tests used:
[1] = molecular target: T1, Pex1/Pex6 (Pex1-FLAG/His-Pex6); assay: cryo-EM structure, ~[…] Å D1, ~[…]-9 Å D2; type: binding; conditions: 1 mM ATP, pH 7.6, 10 mM MgCl2, with mEOS3.2-Pex15 1-309 (no substrate density in pore); ATP modelled in all D1 sites and four D2 sites
[2] = molecular target: T2, Pex1/ΔN1-Pex6; assay: enzyme-coupled ATPase assay; type: biochemical; conditions: 5 mM ATP, 30 °C
[3] = test system: T4, Nc1ncnc2c1ncn2[C@@H]1O[C@H](COP(=O)(O)OP(=O)(O)OP(=O)(O)O)[C@@H](O)[C@H]1O; assay: purified protein; type: biochemical, Saccharomyces cerevisiae; conditions: 30 °C, ATP varied, hydrolysis in D2 ring
T4 construct: heterohexamer of alternating Pex1 and Pex6

[4] = molecular target: T3, His-Pex6; assay: cross-linking; photocrosslinking by AzF in Pex1 as above, in the absence or presence of 10 uM Pex15 1-309, Pex15 1-266 or Pex15 43-309; His-Pex6 stood in the complex with the Pex1 variant; conditions: both partners purified

Molecule	Km [3]	binding result [4]	other results
Nc1ncnc2c1ncn2[C@@H]1O[C@H](COP(=O)(O)OP(=O)(O)OP(=O)(O)O)[C@@H](O)[C@H]1O [ATP]			cryo-EM structure, ~4 Å D1, ~5-9 Å D2 [1]: we find density for nucleotide in all the D1 ATPase domains, which we modeled as ATP; enzyme-coupled ATPase assay [2]: Pex1/ΔN1-Pex6 motor had ATPase activity comparable to WT Pex1/Pex6
Pex1/Pex6 (Pex1-FLAG/His-Pex6) (Saccharomyces cerevisiae S288C)	230 µM		
Pex1/Pex6 (Pex1-FLAG/His-Pex6) (Saccharomyces cerevisiae S288C; P24004:DEL941-967)	1030 µM		
B1		binds	
B2		binds	
